# Measurements from patent publication US20250215104A1 (WALDEN BIOSCIENCES, published 2025).
# Numbering of substitutions follows the chain as printed.
# B1: suPAR_DB05_B12 (scFv, V domains shown)
# VH: QVQLVQSGAEVKKPGASVKVSCKASGYTFTNYYMHWVRQAPGQGLEWMGWIDPENGNTIYAQKFQGRVTMTRDTSTSTVYMELSSLRSEDTAVYYCARGYDVDWFVYWGQGTLVTVSS
# VL: DIQMTQSPSSLSASVGDRVTITCSARQSVSYMYWYQQKPGKAPKLLIYRTSNLASGVPSRFSGSGSGTDFTLTISSLQPEDFATYYCQQYHSYPPTFGGGTKVEIK
# notes: Screened as scFv
# B2: suPAR_DB05_A05 (scFv, V domains shown)
# VH: B1 VH with E54S, N55G, N57S, I59S
# VL: B1 VL with S24R
# notes: Screened as scFv
# B3: suPAR_DB04_H10 (scFv, V domains shown)
# VH: B1 VH with N31S, D52S, E54D, N55S, N57G, I59N
# VL: B1 VL with S24R, Q27S
# notes: Screened as scFv
# B4: suPAR_DB04_H06 (scFv, V domains shown)
# VH: B1 VH with M34V, P53H, I59S
# VL: B1 VL with Q27S, A54Q
# notes: Screened as scFv
# B5: suPAR_DB04_H07 (scFv, V domains shown)
# VH: B1 VH with N31S, P53H, I59S, A61D
# VL: B1 VL with S24R, Q27S
# notes: Screened as scFv
# B6: suPAR_DB04_H08 (scFv, V domains shown)
# VH: B1 VH with T30S, N31D, M34I, D52S, E54K, N55S, N57V, I59N
# VL: B1 VL with R26S
# notes: Screened as scFv
# B7: suPAR_DB04_H03 (scFv, V domains shown)
# VH: B1 VH with N31G, Y32N, M34L, P53H, E54S, N57S, A61D, Y100S
# VL: B1 VL with R26S, Q27S
# notes: Screened as scFv
# B8: suPAR_DB05_A07 (scFv, V domains shown)
# VH: B1 VH with H35Q, P53H
# VL: B1 VL
# notes: Screened as scFv
# B9: suPAR_DB04_H09 (scFv, V domains shown)
# VH: B1 VH with Y27G, T30S, N31G, M48V, D52T, E54D, N55S, N57A, I59A
# VL: B1 VL
# notes: Screened as scFv
# B10: suPAR_DB04_H05 (scFv, V domains shown)
# VH: B1 VH with Y27H, F29L, T30N, N31S, N55G
# VL: B1 VL with Q27S
# notes: Screened as scFv
# B11: suPAR_DB05_A06 (scFv, V domains shown)
# VH: B1 VH with N31S, Y32H, M34V, P53H, A61D
# VL: B1 VL with Q27S
# notes: Screened as scFv
# B12: suPAR_DB01_H04 (scFv, V domains shown)
# VH: B1 VH with E54N, N55S, N57G, I59N
# VL: B1 VL with Q27S
# notes: Screened as scFv
# B13: suPAR_DB01_H08 (scFv, V domains shown)
# VH: B1 VH with Y27F, T28N, F29I, T30K, N31D, M34I, E54N, N55G, N57G, I59Q
# VL: B1 VL with S24R, R26S, Q27S, A54Q
# notes: Screened as scFv
# B14: suPAR_DB02_C04 (scFv, V domains shown)
# VH: QVQLVQSGAEVKKPGASVKVSCKASGFNIKDYYIHWVRQAPGQGLEWMGWIDHEGGSTSYDQKFQGRVTMTRDTSTSTVYMELSSLRSEDTAVYYCARGYDVDWFVYWGQGTLVTVSS
# VL: B1 VL with Q27S
# notes: Screened as scFv
# B15: suPAR_DB02_B06 (scFv, V domains shown)
# VH: B1 VH with Y27D, N31S, P53H, N55G, N57S, K63Q
# VL: B1 VL with Q27S
# notes: Screened as scFv
# B16: suPAR_DB02_A11 (scFv, V domains shown)
# VH: B1 VH with Y27G, T30S, N31S, E54S, A61D
# VL: B1 VL
# notes: Screened as scFv
# B17: suPAR_DB01_H05 (scFv, V domains shown)
# VH: B1 VH with N31G, Y32N, M34V, P53H, A61D
# VL: B1 VL with Q27S
# notes: Screened as scFv
# B18: suPAR_DB02_A08 (scFv, V domains shown)
# VH: B1 VH with N31T
# VL: B1 VL with Q27S
# notes: Screened as scFv
# B19: suPAR_DB02_A10 (scFv, V domains shown)
# VH: B1 VH with N31G, Y32N, P53H, A61D, Y100S
# VL: B1 VL with Q27S
# notes: Screened as scFv
# B20: suPAR_DB02_A05 (scFv, V domains shown)
# VH: B1 VH with Y27D, N31S
# VL: B1 VL
# notes: Screened as scFv
# B21: suPAR_DB02_B07 (scFv, V domains shown)
# VH: B1 VH with Y27H, T30S, N31S
# VL: B1 VL with V29I
# notes: Screened as scFv
# B22: suPAR_DB02_A03 (scFv, V domains shown)
# VH: B1 VH with N31D, M34I
# VL: B1 VL with Q27S
# notes: Screened as scFv
# B23: suPAR_DB02_A07 (scFv, V domains shown)
# VH: B14 VH with F27Y, D52S, H53P, E54D, G55S, S57V, S59N, D61A
# VL: B1 VL
# notes: Screened as scFv
# B24: suPAR_DB02_B03 (scFv, V domains shown)
# VH: B1 VH with T30I, N31G, Y32N, M34I, P53H, N57S, A61D, Y100S
# VL: B1 VL with Q27S
# notes: Screened as scFv
# B25: suPAR_DB02_B05 (scFv, V domains shown)
# VH: B1 VH with N31S, P53H, I59S
# VL: B1 VL with S24R
# notes: Screened as scFv
# B26: suPAR_DB02_C02 (scFv, V domains shown)
# VH: B1 VH with T30K, N31S, P53H, A61D, R98S
# VL: B1 VL with Q27S
# notes: Screened as scFv
# B27: suPAR_DB02_C01 (scFv, V domains shown)
# VH: B1 VH with N31G, N57S, A61D
# VL: B1 VL with S24R
# notes: Screened as scFv
# B28: suPAR_DB02_B01 (scFv, V domains shown)
# VH: B1 VH with N31G, Y32H, M34V, P53H, A61D
# VL: B1 VL
# notes: Screened as scFv
# B29: suPAR_DB01_H06 (scFv, V domains shown)
# VH: B14 VH with I34M, H53P, G55N, S57N, S59I
# VL: B1 VL with V29I
# notes: Screened as scFv
# B30: suPAR_DB01_H07 (scFv, V domains shown)
# VH: B1 VH with Y27D, T30S, P53H, N57S
# VL: B1 VL with Q27S
# notes: Screened as scFv
# B31: suPAR_DB01_H10 (scFv, V domains shown)
# VH: B1 VH with P53H, N57S
# VL: B1 VL
# notes: Screened as scFv
# B32: suPAR_DB02_B10 (scFv, V domains shown)
# VH: B1 VH with I59S, A61D
# VL: B1 VL with S24R
# notes: Screened as scFv
# B33: suPAR_DB02_A04 (scFv, V domains shown)
# VH: B1 VH with N31G, M34V, P53H, A61D
# VL: B1 VL with S24R, R26S, Q27S
# notes: Screened as scFv
# B34: suPAR_DB02_A09 (scFv, V domains shown)
# VH: B1 VH with N55G, N57S, A61D
# VL: B1 VL with V29I
# notes: Screened as scFv
# B35: suPAR_DB02_A12 (scFv, V domains shown)
# VH: B1 VH with P53H, N57S, V102M
# VL: B1 VL with Q27S
# notes: Screened as scFv
# B36: suPAR_DB02_B04 (scFv, V domains shown)
# VH: B1 VH with N31G, Y32H, P53H, A61D
# VL: B1 VL with Q27S
# notes: Screened as scFv
# B37: suPAR_DB02_B08 (scFv, V domains shown)
# VH: B1 VH with T28S, P53H, N57S, I59S, A61D
# VL: B1 VL with Q27S
# notes: Screened as scFv
# B38: suPAR_DB02_C05 (scFv, V domains shown)
# VH: B1 VH with Y27G, T30S, N31S, P53H, A61D
# VL: B1 VL with Q27S
# notes: Screened as scFv
# B39: suPAR_DB02_B09 (scFv, V domains shown)
# VH: B1 VH with N31G, M34V, P53H, E54S, A61D, R98S
# VL: B1 VL with Q27S
# notes: Screened as scFv
# Molecular target: T1, cynomolgus soluble urokinase plasminogen activator receptor (suPAR) (cynomolgus, UniProt Q9GK78 23-303, limits assumed)
# T1 construct: Column head says only 'cynomologus'; also called cynomolgus suPAR; cynomolgus uPAR
# Experiment: BLI (Octet) off-rate screen of scFv clones
# T1 sequence (Q9GK78 23-303 limits assumed): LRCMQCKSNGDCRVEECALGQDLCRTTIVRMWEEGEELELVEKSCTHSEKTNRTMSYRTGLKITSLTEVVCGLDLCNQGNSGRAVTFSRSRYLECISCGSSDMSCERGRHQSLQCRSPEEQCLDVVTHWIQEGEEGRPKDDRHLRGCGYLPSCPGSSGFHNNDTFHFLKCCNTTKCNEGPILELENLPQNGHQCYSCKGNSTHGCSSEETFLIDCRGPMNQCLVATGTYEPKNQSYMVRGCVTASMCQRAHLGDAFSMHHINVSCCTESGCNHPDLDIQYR
row,koff [s⁻¹],Binder
1,0.000383,B1
2,0.000639,B2
3,0.000323,B3
4,0.000289,B4
5,0.000249,B5
6,5.42e-07,B6
7,0.000226,B7
8,0.00029,B8
9,8.8e-05,B9
10,0.000182,B10
11,0.000277,B11

# Molecular target: T2, human soluble urokinase plasminogen activator receptor (suPAR) (human, UniProt Q03405 23-303, limits assumed)
# T2 construct: Column head says only 'human'; also called hsuPAR; human suPAR
# Experiment: BLI (Octet) off-rate screen of scFv clones
# T2 sequence (Q03405 23-303 limits assumed): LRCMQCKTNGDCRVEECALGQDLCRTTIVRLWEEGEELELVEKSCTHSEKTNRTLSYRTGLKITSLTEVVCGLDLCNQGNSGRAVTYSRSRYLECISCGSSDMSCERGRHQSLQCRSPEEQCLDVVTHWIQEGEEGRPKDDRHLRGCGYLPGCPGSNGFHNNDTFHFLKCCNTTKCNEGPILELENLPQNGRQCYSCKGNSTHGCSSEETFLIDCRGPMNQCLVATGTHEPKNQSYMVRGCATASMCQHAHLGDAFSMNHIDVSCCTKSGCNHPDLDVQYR
row,koff [s⁻¹],Binder
1,0.00472,B1
2,0.00553,B2
3,0.00354,B3
4,0.00926,B4
5,0.00511,B5
6,0.0034,B6
7,0.00134,B7
8,0.00495,B8
9,0.00475,B9
10,0.00584,B10
11,0.00352,B11

# Molecular target: T3, cynomolgus soluble urokinase plasminogen activator receptor (cynomolgus suPAR) (cynomolgus, UniProt Q9GK78 23-303, limits assumed)
# T3 construct: also called cynomolgus uPAR; cynoPLAUR-His
# Experiment: BLI (Octet) off-rate screen of scFv
# T3 sequence (Q9GK78 23-303 limits assumed): as the sequence (Q9GK78 23-303 limits assumed) above
row,koff [s⁻¹],Binder
1,0.000225,B12
2,0.00038,B13
3,0.00132,B14
4,0.000127,B15
5,0.000232,B16
6,0.000432,B17
7,7.98e-05,B18
8,0.00024,B19
9,0.000151,B20
10,8.12e-05,B21
11,0.000341,B22
12,0.000352,B23
13,0.000424,B24
14,0.000199,B25
15,3.58e-05,B26
16,0.00025,B27
17,0.000363,B28
18,0.000129,B29
19,0.000219,B30
20,0.000374,B31
21,0.000434,B32
22,0.000521,B33
23,0.000484,B34
24,2.26e-05,B35
25,0.000185,B36
26,8.61e-05,B37
27,0.000285,B38
28,0.000208,B39

# Molecular target: T4, human soluble urokinase plasminogen activator receptor (hsuPAR) (human, UniProt Q03405 23-303, limits assumed)
# T4 construct: also called human suPAR; rhuPAR-His
# Experiment: BLI (Octet) off-rate screen of scFv
# T4 sequence (Q03405 23-303 limits assumed): as the sequence (Q03405 23-303 limits assumed) above
row,koff [s⁻¹],Binder
1,0.00242,B12
2,0.00281,B13
3,0.00128,B14
4,0.00353,B15
5,0.00447,B16
6,0.00152,B17
7,0.00363,B18
8,0.00319,B19
9,0.00521,B20
10,0.00447,B21
11,0.00198,B22
12,0.00114,B23
13,0.00088,B24
14,0.0041,B25
15,0.00429,B26
16,0.00465,B27
17,0.00253,B28
18,0.0052,B29
19,0.00138,B30
20,0.000603,B31
21,0.00189,B32
22,0.00236,B33
23,0.00613,B34
24,0.0017,B35
25,0.00477,B36
26,0.00155,B37
27,0.00504,B38
28,0.00422,B39
